Experimental data published in patent publication US12018068B2, “Anti-O1 antibodies and uses thereof” (priority 2016, dated 2024).

B1: 54H7: mouse hybridoma anti-O1 antigen antibody (Ms IgG3), VH SEQ ID NO:47, VL SEQ ID NO:48 (antibody, V domains shown)
VH: QVHLQQPGSELVRPGASVTLSCKASGYTFTNYWMQWVKQRPGQGLEWIGNIYPGSGNTNYDEKFRSKATLTVDTSSSTAYMHLTSLTSEDSAVYYCTRNWNFDYWGQGTTLTVSS
VL: DIQMTQSPSSLSASLGERVSLTCRASQDIGSSLNWLQQEPDGTIKRLIYATSSLDSGVPKRFSGSRSGSEYSLTISSLEAEDFVDYYCLQHTDSPYTFGGGTKLELK
modifications: 54H7 VH; 54H7 VL Amino Acid Sequence
B2: KPE33: human anti-K. pneumoniae O1 antigen antibody, VH SEQ ID NO:8, VL SEQ ID NO:9, isolated as IgG2 from donor #262 (antibody, V domains shown)
VH: EVQLVESGGALVQPGGSLRLSCAVSGFIFDDYAIHWVRRAPGKGLEWVSGIAWKSGATNYADSVKGRFAISRDNSKKSMYLQMNSLGTEDTALYYCTRRRASGDDTFYYFDYWGQGTLVTVSS
VL: EIVLTQSPATLSLSPGERATLSCRASQNVNTNLAWYQQRPGQSPRLLIYDASTRAAGLPARFSGSGSGTDFTLTISSLEPEDFAVYYCQQCTNWRYTFGQGTKLEIK
modifications: KPE33 VH Amino Acid Sequence; KPE33 VL Amino Acid Sequence

Tests used:
[1] = system: highly virulent strain Kp43816 (O1); assay: acute pneumonia model with Kp43816, prophylactic dosing, survival; assay type: in vivo, Klebsiella pneumoniae; settings: 15 mpk, 24 hour prior to challenge
Description: In order to determine the efficacy of anti-O1 antigen antibodies in combination with antibiotics, 54H7 was tested in an acute pneumonia models. C57BL/6 mice were inoculated intranasally with 1e4 CFU of highly virulent strain Kp43816 (O1). Anti-K. pneumoniae monoclonal antibody 54H7 at 15 mg/kg and human IgG1 control antibody at 15 mg/kg were given 24 hour prior bacterial challenge (prophylatic dosing). Mouse survival was monitored daily until up to day 14.

LPS = assay: endotoxemia LPS-induced sepsis model, survival; assay type: in vivo, Balb/c mice; settings: 1 mg/kg or 5 mg/kg, 24 hours prior to LPS, vs control IgG (R347)
Description: In order to determine the protective effect of anti-O1 antigen antibodies, female mice (Balb/c), aged 6-8 weeks, were sensitized with D-galactose (D-Gal, 12 mg/kg), and subsequently challenged intraperitoneally (ip) with 10-50 ng of LPS 24 hours after anti-O1 antigen antibody administration. Antibody was administered at doses of 0.2 mg/kg, 1 mg/kg, or 5 mg/kg. Mouse survival was monitored up to 6 days post LPS challenge.

purified O1 LPS = assay: Fortebio Octet competitive binding on O1 LPS; set-up: species or system Klebsiella pneumoniae; settings: 10 μg/mL, probe pre-bound with KPE33
Description: Briefly, after initial binding with 10 μg/mL KPE33, the probe was incubated with antibody mixtures containing 10 μg/mL KPE33 with equal concentrations of 54H7, KPE33, or the control antibody R347.

Kp8045 Klebsiella = assay: pneumonia model, 54H7 synergy with meropenem; assay type: in vivo, Klebsiella pneumoniae; settings: antibody 1 mpk at 1 hour, meropenem 1.5 mpk at 4 hour post challenge
Description: The synergy of anti-O1 antigen antibodies and antibiotic was also assessed in the pneumonia mouse models. C57BL/6 mice were inoculated intranasally with 1e4 to 1e8 CFU of Kp8045 Klebsiella. Both sub-therapeutic dosage of antibodies (1 mpk) and meropenem antibiotic (1.5 mpk) were administered at 1 hour or 4 hour post bacterial challenge, respectively. Mouse survival was monitored daily until up to day 8.

[2] = system: K. pneumoniae strain Kp8045 (O1:K1); assay: intranasal lung infection model, lung bacterial burden; assay type: in vivo, Klebsiella pneumoniae; settings: C57BL/6 mice, 15 mg/kg, CFU 48 hours post infection
Description: The ability of anti-O1 antigen antibodies to reduce organ burden was tested in bacterial infection models. In these experiments, C57BL/6 mice were received from Jackson laboratories and maintained in a special pathogen free facility. All animal experiments were conducted in accordance with IACUC protocol and guidance. K. pneumoniae strains were grown on agar plates overnight and diluted in saline at proper concentration. The inoculum titer was determined by plating a serial dilution of bacteria onto agar plates prior to and post challenge.
Antibodies and controls at 15 mg/kg were administered 24 hours prior to bacterial infection. C57BL/6 mice were inoculated with 1e4 CFU Kp8045 (O1:K1) bacteria in 40 μl saline intranasally to induce pneumonia. The lung bacterial burden was measured by plating lung homogenates onto agar plates to determine CFU 48 hours post infection.

ESBL strain Kp8561 (O1) = assay: lethal bacteremia model, survival; assay type: in vivo, Klebsiella pneumoniae; settings: C57BL/6 mice, 1.5, 5, 15 mg/kg one hour post challenge
Description: In a bacteremia model, C57BL/6 mice were inoculated intraperitoneally with 1e8 CFU extended spectrum beta lactamase (ESBL) clinical isolate strain Kp8561 (O1). Anti-K. pneumoniae monoclonal antibody KPE33 at 1.5, 5, and 15 mg/kg and human IgG1 control antibody at 45 mg/kg were given one hour post bacterial challenge (therapeutic dosing). Mouse survival was monitored daily until up to day 8.

[3] = system: clinical Klebsiella strains; assay: western blot binding to clinical isolates
Description: In order to determine if anti-O1 antigen antibodies bind to clinically relevant Klebsiella strains, the binding of KPE33 to clinical isolates was determined by western blot assay. The ability of KPE33 to bind to all of these strains as well as its ability to protect against four different strains in vivo indicate that KPE33 can kill many clinically relevant Klebsiella strains.

[4] = system: Klebsiella pneumoniae of the LPS-O1 serotype; assay: primary screening, binding to whole bacteria
Source text: KPA27 and KPE33 were isolated from the peripheral blood of two different immune donors: #487 and #262, respectively. […] KPA27 and KPE33 were isolated from immune donors as IgG2 antibodies.
KPB202 and KPJ4 were isolated from tonsillar B cells of two different donors: T6 (KPB202) and T8 (KPJ4). […] KPB202 and KPJ4 were isolated from donors as IgG1 and IgG2 antibodies, respectively.

Kp8561 Klebsiella = assay: bacteremia model, KPE33 synergy with meropenem; assay type: in vivo, Klebsiella pneumoniae; settings: antibody 2.5 mpk, meropenem 5 mpk, post challenge
Description: The synergy of anti-O1 antigen antibodies and antibiotic was also assessed in the pneumonia and bacteremia mouse models.
In the pneumonia experiments, C57BL/6 mice were inoculated intranasally with 1e4 to 1e8 CFU of the Kp8045 Klebsiella. (See FIG. 4A.) In the bacteremia experiments, mice were inoculated with Kp8561 Klebsiella. (See FIG. 4B.) Both sub-therapeutic dosage of antibodies (1 mpk for Kp8045 and 2.5 mpk for Kp8561) and meropenem antibiotic (2.5 mpk for Kp8045 and 5 mpk for Kp8561) were administered post bacterial challenge. Mouse survival was monitored daily until up to day 8.

[5] = system: K. pneumoniae and S. aureus SF8300 (USA300); assay: K. pneumoniae and S. aureus co-infection pneumonia model; assay type: in vivo, Klebsiella pneumoniae and Staphylococcus aureus; settings: C57BL/6 mice, 0.5 mL ip, 24 hours prior to co-infection
Description: In order to evaluate the efficacy of anti-O1 antigen antibodies in co-infection, female 7-8 week old C57BL/6 mice were briefly anesthetized in 3% Isoflurane and 50 μl of bacterial suspension was placed on the nares. Animals were inoculated with 5e7 CFU S. aureus SF8300 (USA300) alone or in combination with 1.5e2 CFU of K. pneumoniae and monitored up to 7 days for survival studies. For organ burden studies, lungs and spleens were harvested at 24 or 48 hours post challenge as described in Example 5 above. For protection studies, mice were passively immunized (0.5 mL, ip) with KPE33 or control mAb before lethal bacterial challenge. All data were plotted in Prism.

| Molecule | survival, Kp43816 pneumonia, monotherapy [1] | survival, endotoxemia model (LPS) | additional binding after initial binding of KPE33 (purified O1 LPS) | survival, combination with meropenem, pneumonia Kp8045 (Kp8045 Klebsiella) | lung bacterial burden [2] | survival, lethal bacteremia Kp8561 (ESBL strain Kp8561 (O1)) | binding to clinical isolates ([3]; Table 8) | binding of KPE33 to clinical Klebsiella strains ([3]; clinical isolates listed in Table 8 (rows 1-36 CRE, rows 37-134 ESBL, rows 135-184 antibiotic-susceptible)) | binding to bacteria in primary screening [4] | survival, combination with meropenem, bacteremia Kp8561 (Kp8561 Klebsiella) | survival in lethal co-infection [5] |
| --- | --- | --- | --- | --- | --- | --- | --- | --- | --- | --- | --- |
| B1 | significant protection | protects mice | able to show additional binding | significant synergy and better protection than monotherapy | – | – | – | – | – | – | – |
| B2 | – | – | – | – | significantly reduced organ burden | protect mice from extended spectrum beta-lactamase (ESBL) strain Kp8561 | binds not only to a large and diverse group of clinical strains, but also to antibiotic resistant clinically relevant strains | Summary of clinical Klebsiella strains which KPE33 binds. | bind to Klebsiella pneumoniae of the LPS-O1 serotype | significant synergy and better protection than monotherapy | rescued the mice |
